Reference: patent US20190352411A1 (ALLIGATOR BIOSCIENCE, published 2019)
Like-named read-outs stand apart in the source and are kept apart here.

Assays:
[1] = molecular target: T1, 1555: Human CD137 with mouse domains 1 and 4B and region of unknown function (aa 24-46 and aa 139-186) (human; mouse, UniProt P20334 24-45; P20334 139-185); assay: flow cytometry on transfected 293-F cells, human/mouse CD137 chimera
T1 construct: Human/mouse chimera transiently expressed on FreeStyle 293-F cells
Procedure: (§1) The ability of each antibody to bind to a panel of human/mouse CD137 chimeras expressed on the surface of transfected cells was analyzed by flow cytometry.
(§2) The chimeras were designed by exchanging domains or modules of the human CD137 with the corresponding mouse domain. Genes of CD137 human/mouse chimeras were synthesized (GenScript) and constructs cloned into pcDNA3.1 vector (Invitrogen) and transiently transfected into FreeStyle 293-F cells (Invitrogen). The transfected cells were incubated with CD137 antibodies and control antibodies, followed by incubation with anti-human IgG-PE (Jackson Immunoresearch) for detection and analyzed with FACS Verse (BD Biosciences). Binding to the different chimeric constructs was calculated as relative MFI compared to the binding of the isotype control, followed by normalization to the full-length human CD137 construct to minimize the effect of affinity differences between individual antibodies.

[2] = molecular target: T2, 1554: Human CD137 with mouse domains 3B, 4A and 4B (aa 97-159) (human; mouse, UniProt P20334 96-159); assay: as above
T2 construct: domain: domains 3B, 4A and 4B (aa 97-159); Human/mouse chimera transiently expressed on FreeStyle 293-F cells
Procedure: as §1, §2

[3] = molecular target: T3, 1552: Human CD137 with mouse domains 2B, 3A and 3B (aa 64-118) (human; mouse, UniProt P20334 63-117); assay: as above
T3 construct: Human/mouse chimera transiently expressed on FreeStyle 293-F cells
Procedure: as §1, §2

[4] = molecular target: T4, 1550: Human CD137 with mouse domains 1, 2A and 2B (aa 24-86) (human; mouse, UniProt P20334 24-85); assay: as above
T4 construct: domain: domains 1, 2A and 2B (aa 24-86); Human/mouse chimera transiently expressed on FreeStyle 293-F cells; Limits of the human pieces are worked out from the printed aa range
Procedure: as §1, §2

[5] = molecular target: T5, 1551: Human CD137 with mouse domains 2A, 2B and 3A (aa 47-96) (human; mouse, UniProt P20334 46-95); assay: as above
T5 construct: domain: domains 2A, 2B and 3A (aa 47-96); Human/mouse chimera transiently expressed on FreeStyle 293-F cells
Procedure: as §1, §2

[6] = molecular target: T6, 1553: Human CD137 with mouse domains 3A, 3B and 4A (aa 87-133) (human; mouse, UniProt P20334 86-133); assay: as above
T6 construct: domain: domains 3A, 3B and 4A (aa 87-133); Human/mouse chimera transiently expressed on FreeStyle 293-F cells
Procedure: as §1, §2

[7] = molecular target: T7, cynomolgus CD137 on transfected CHO cells (CHO-cyCD137) (cynomolgus (Macaca fascicularis); human); assay: flow cytometry on CHO-cyCD137 cells; 95% confidence interval of the EC50
T7 construct: extracellular domain;domain: transmembrane and intracellular part; also called cyno CD137

[8] = molecular target: T8, human CD137 on transfected CHO cells (CHO-huCD137) (human); assay: flow cytometry on CHO-huCD137 cells; 95% confidence interval of the EC50
T8 construct: domain: transmembrane and intracellular part
Procedure: (§3) Binding and EC50 was determined using flow cytometric of CHO cells transfected with human CD137, cynomolgus CD137 or empty vector. The extracellular part of human or cynomolgus CD137 was fused to the transmembrane and intracellular part of human CD40 and cloned into pcDNA3.1. The vector was subsequently stably transfected into CHO cells. […] CD137-transfected and empty vector-transfected cells were incubated with CD137 antibodies for at least 1 h at 4° C. to saturate the binding. In order to minimize antibody internalization, 0.05% sodium azide was used in the incubation buffer and all work was performed on ice. The CD137 antibodies were detected using PE-conjugated anti-hIgG antibody (109-115-098, Jackson Immunoresearch laboratories), incubated for 30 min at 4° C. Directly after staining the cells were fixed with a paraformaldehyde solution (10× concentrate BD CellFIX, BD biosciences #340181). Cells were analyzed by flow cytometry using FACSVerse (BD Biosciences). The median fluorescence intensity (MFI) for each sample was determined and the dose response data was analysed using Graph Pad Prism.
(§4) MFI data was normalized for each antibody, where 0% is defined as the lowest value and 100% is the highest value in the dose titration for each antibody.

[9] = molecular target: cynomolgus CD137 (Acro Biosystems #41B-C52H4) (cynomolgus, UniProt A9YYE7 24-186); assay: Octet (BLI), antibody amine-coupled to ARG2 biosensor, soluble CD137 as analyte, 1:1 model
Procedure: Materials and method CD137 affinity was determined using the Octet Red 96 platform (ForteBio). […] 7 2-fold serial dilutions of CD137 (Acro Biosystems #41B-H5227 and #41B-C52H4) from 100 nM was prepared in 1× kinetic buffer (ForteBio #18-1092). Association was measured for 180 s followed by dissociation for 180 s in 1× kinetic buffer. 10 mM Glycine pH 2.2 was used for regeneration.
Data generated was referenced by reference well subtraction (1188), the baseline was aligned with the y-axis, inter-step correlation by alignment against association was performed and the data was smoothed by a Savitzky-Golay filtering in the data analysis software (v.9.0.0.14). The processed data was fitted using a 1:1 Langmuir binding model with X² as a measurement of fitting accuracy.

[10] = molecular target: T8, human CD137 on transfected CHO cells …; assay: flow cytometry on CHO-huCD137 cells; 95% confidence interval of the EC50; remark: listed apart in the source
Procedure: as §3, §4

[11] = molecular target: T9, human FcγRIIb (R&D Systems #1460-CD-050) (human, UniProt P31994 46-217, limits assumed); assay: Octet (BLI), antibody captured on FAB2G tips, soluble FcγR as analyte, 1:1 model
T9 construct: Soluble analyte in the Octet assay
T9 sequence (looked up): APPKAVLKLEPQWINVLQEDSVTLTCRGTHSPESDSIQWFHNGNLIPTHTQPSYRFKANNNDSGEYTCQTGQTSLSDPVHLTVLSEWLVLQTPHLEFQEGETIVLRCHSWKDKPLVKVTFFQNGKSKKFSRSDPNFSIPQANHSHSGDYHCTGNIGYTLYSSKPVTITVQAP
Source text: (§5) The processed data was fitted using a 1:1 Langmuir binding model with X² as a measurement of fitting accuracy.

[12] = molecular target: T10, human FcγRIIa (R&D Systems #1330-CD-050) (human, UniProt P12318 36-218, limits assumed); assay: as above
T10 construct: Soluble analyte in the Octet assay
T10 sequence (looked up): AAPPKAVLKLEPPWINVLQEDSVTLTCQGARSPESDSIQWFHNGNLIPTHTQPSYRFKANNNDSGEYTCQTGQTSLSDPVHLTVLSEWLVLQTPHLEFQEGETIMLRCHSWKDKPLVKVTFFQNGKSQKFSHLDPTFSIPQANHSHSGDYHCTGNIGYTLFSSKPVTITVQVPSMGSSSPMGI
Source text: as §5

[13] = molecular target: T7, cynomolgus CD137 on transfected CHO …; assay: flow cytometry on CHO-cyCD137 cells; 95% confidence interval of the EC50; remark: listed apart in the source
Procedure: as §3, §4

T7 sequence (P25942 other isoform, or with tags, fused parts or gaps): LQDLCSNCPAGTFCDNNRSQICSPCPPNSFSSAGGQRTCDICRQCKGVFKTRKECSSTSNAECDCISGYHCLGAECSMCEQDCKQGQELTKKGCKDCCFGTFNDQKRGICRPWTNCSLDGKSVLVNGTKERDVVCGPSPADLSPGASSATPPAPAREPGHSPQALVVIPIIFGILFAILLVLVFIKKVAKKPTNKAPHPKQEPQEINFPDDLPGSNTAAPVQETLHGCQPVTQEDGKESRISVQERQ
T8 sequence (P25942 other isoform, or with tags, fused parts or gaps limits assumed): as the sequence (P25942 other isoform, or with tags, fused parts or gaps) above, with L4P, S19N, K50R, I66T, S67P, Y69F, E75G, A149V counted along it
T6 sequence (P20334 other isoform, or with tags, fused parts or gaps limits assumed): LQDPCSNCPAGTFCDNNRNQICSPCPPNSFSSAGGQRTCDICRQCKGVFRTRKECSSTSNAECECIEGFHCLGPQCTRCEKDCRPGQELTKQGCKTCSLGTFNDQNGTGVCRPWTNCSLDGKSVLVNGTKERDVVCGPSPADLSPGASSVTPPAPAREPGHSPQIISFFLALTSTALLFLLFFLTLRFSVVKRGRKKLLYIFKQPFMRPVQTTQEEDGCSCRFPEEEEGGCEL
T1 sequence (P20334 other isoform, or with tags, fused parts or gaps limits assumed): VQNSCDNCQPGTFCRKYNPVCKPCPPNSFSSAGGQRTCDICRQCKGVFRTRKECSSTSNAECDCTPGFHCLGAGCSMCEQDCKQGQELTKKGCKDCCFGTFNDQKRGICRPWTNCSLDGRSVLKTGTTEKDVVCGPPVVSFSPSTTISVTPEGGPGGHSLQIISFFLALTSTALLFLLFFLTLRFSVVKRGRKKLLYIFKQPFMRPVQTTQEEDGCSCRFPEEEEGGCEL
T4 sequence (P20334 other isoform, or with tags, fused parts or gaps limits assumed): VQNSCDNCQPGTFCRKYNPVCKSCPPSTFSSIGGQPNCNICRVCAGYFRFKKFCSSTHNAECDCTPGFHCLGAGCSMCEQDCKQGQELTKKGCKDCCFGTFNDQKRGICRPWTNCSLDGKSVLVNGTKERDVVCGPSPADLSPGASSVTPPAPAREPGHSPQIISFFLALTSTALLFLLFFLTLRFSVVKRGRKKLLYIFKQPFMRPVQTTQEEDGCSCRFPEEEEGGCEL
T2 sequence (P20334 other isoform, or with tags, fused parts or gaps limits assumed): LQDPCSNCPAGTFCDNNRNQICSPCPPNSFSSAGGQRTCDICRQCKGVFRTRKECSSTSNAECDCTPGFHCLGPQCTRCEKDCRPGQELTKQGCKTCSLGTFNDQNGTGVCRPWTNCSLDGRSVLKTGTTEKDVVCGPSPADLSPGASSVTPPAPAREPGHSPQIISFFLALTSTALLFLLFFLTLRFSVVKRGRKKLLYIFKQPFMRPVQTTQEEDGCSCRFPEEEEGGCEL
T5 sequence (P20334 other isoform, or with tags, fused parts or gaps limits assumed): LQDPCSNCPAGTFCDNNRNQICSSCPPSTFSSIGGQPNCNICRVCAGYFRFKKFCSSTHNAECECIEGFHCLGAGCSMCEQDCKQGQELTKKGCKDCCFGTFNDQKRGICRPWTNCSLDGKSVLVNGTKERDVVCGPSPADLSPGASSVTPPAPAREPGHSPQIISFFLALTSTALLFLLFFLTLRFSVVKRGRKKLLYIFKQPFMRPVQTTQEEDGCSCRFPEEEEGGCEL
cynomolgus CD137 (Acro Biosystems #41B-C52H4), sequence (A9YYE7 entry or part of it): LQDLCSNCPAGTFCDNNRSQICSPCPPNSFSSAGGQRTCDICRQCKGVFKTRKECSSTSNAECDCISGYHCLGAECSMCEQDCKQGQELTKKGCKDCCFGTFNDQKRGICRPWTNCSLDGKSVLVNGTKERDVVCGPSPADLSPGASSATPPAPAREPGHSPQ
T3 sequence (P20334 other isoform, or with tags, fused parts or gaps limits assumed): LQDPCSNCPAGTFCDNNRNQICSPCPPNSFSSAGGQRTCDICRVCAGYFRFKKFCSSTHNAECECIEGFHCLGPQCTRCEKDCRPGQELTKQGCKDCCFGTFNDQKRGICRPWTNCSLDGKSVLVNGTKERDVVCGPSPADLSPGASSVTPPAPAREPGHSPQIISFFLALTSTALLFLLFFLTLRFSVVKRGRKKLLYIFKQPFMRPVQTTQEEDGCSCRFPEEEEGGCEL

MFI antibody/isotype control, normalized to full-length human CD137 [1]: 0.26
MFI antibody/isotype control, normalized to full-length human CD137 [2]: 0.16
MFI antibody/isotype control, normalized to full-length human CD137 [3]: 0.19
MFI antibody/isotype control, normalized to full-length human CD137 [4]: 0.22
MFI antibody/isotype control, normalized to full-length human CD137 [5]: 0.37
MFI antibody/isotype control, normalized to full-length human CD137 [6]: 0.17
EC50 [7]: 0.13 to 0.24 µg/mL
EC50 [8]: 0.21 to 0.31 µg/mL
Kd [9]: 10 nM
EC50 [10]: 0.16 to 0.27 nM
Kd [11]: 2700 nM
Kd [12]: 587 nM
EC50 [13]: 0.41 to 0.56 nM
B1: REF2 (antibody)
chain 1: not shown
chain 2: DIVMTQSPDSLSVSLGERATINCRASKSVDSYGNSFMHWYQQKPGQPPKLLIYLASNLESGVPDRFSGSGSGTDFTLTISSLQAEDVAVYYCQQNNEDPRTFGGGTKVEIKRTVAAPSVFIFPPSDEQLKSGTASVVCLLNNFYPREAKVQWKVDNALQSGNSQESVTEQDSKDSTYSLSSTLTLSKADYEKHKVYACEVTHQGLSSPVTKSFNRGEC
